Paper PMC4521584
Substitutions are numbered along the chain they refer to. Numbers in names are those of the source.

B1: WT MutS (Escherichia coli K-12) (protein)
chain: MSAIENFDAHTPMMQQYLRLKAQHPEILLFYRMGDFYELFYDDAKRASQLLDISLTKRGASAGEPIPMAGIPYHAVENYLAKLVNQGESVAICEQIGDPATSKGPVERKVVRIVTPGTISDEALLQERQDNLLAAIWQDSKGFGYATLDISSGRFRLSEPADRETMAAELQRTNPAELLYAEDFAEMSLIEGRRGLRRRPLWEFEIDTARQQLNLQFGTRDLVGFGVENAPRGLCAAGCLLQYAKDTQRTTLPHIRSITMEREQDSIIMDAATRRNLEITQNLAGGAENTLASVLDCTVTPMGSRMLKRWLHMPVRDTRVLLERQQTIGALQDFTAGLQPVLRQVGDLERILARLALRTARPRDLARMRHAFQQLPELRAQLETVDSAPVQALREKMGEFAELRDLLERAIIDTPPVLVRDGGVIASGYNEELDEWRALADGATDYLERLEVRERERTGLDTLKVGFNAVHGYYIQISRGQSHLAPINYMRRQTLKNAERYIIPELKEYEDKVLTSKGKALALEKQLYEELFDLLLPHLEALQQSASALAELDVLVNLAERAYTLNYTCPTFIDKPGIRITEGRHPVVEQVLNEPFIANPLNLSPQRRMLIITGPNMGGKSTYMRQTALIALMAYIGSYVPAQKVEIGPIDRIFTRVGAADDLASGRSTFMVEMTETANILHNATEYSLVLMDEIGRGTSTYDGLSLAWACAENLANKIKALTLFATHYFELTQLPEKMEGVANVHLDALEHGDTIAFMHSVQDGAASKSYGLAVAALAGVPKEVIKRARQKLRELESISPNAAATQVDGTQMSLLSVPEETSPAVEALENLDPDSLTPRQALEWIYRLKSLV
notes: full-length MutS from mutS gene in pET-3D, recombinant, purified; homodimer (can form tetramers)
B2: WT MutS (Escherichia coli K-12; I597A/M759D/P595A) (protein)
chain: B1 chain with P595A, I597A, M759D
notes: as for B1

Substrate: Nc1ncnc2c1ncn2[C@@H]1O[C@H](COP(=O)(O)OP(=O)(O)OP(=O)(O)O)[C@@H](O)[C@H]1O
Assay: ATPase assay coupled to NADH oxidation
Assay type: biochemical, Escherichia coli
Conditions: 5 μM MutS, 3.125-500 μM ATP

Protein	Km [µM]	kcat [s⁻¹]
B1	8.1 ± 0.7	0.138 ± 0.0033
B2	9.5 ± 1	0.0633 ± 0.0017
